Among the data in US20220332804A1 (CSL INNOVATION, published 2022) are Fold diff values, retold here.

Residue numbers refer to the chain shown, from its start.

What all share (assay): SPR; KD relative to WT C2;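 also: biacore SPR at 37 °C, anti-C2 mAbs captured on an anti-human IgG chip, alanine or serine C2 surface mutants tested, KD from 1:1 fit compared with wild-type C2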
On the technique in general: Surface plasmon resonance follows binding to a sensor surface in real time, without labels.

One experiment has as its target T1, human C2 E324A (human, UniProt P06681 21-752).
T1 sequence: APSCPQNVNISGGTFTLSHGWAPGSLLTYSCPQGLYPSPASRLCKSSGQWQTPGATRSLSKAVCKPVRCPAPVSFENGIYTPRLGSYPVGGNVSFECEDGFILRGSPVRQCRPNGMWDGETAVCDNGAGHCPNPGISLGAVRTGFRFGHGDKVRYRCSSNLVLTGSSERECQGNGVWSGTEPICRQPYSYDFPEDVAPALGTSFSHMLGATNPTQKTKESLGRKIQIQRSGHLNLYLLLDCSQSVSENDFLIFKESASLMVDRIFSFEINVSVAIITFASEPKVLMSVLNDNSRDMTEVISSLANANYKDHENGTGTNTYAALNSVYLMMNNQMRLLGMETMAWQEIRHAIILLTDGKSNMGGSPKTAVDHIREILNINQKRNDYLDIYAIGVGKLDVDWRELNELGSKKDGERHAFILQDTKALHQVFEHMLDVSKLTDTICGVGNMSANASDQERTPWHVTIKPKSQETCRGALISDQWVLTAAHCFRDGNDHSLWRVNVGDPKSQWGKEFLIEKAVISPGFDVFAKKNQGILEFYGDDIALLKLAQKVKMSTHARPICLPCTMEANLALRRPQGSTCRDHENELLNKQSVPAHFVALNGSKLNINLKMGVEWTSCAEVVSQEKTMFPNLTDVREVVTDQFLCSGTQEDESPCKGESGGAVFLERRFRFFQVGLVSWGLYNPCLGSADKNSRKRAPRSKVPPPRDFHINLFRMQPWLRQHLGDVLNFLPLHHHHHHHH

The target of another experiment is T2, human C2 W420A (human, UniProt P06681 21-752).
T2 sequence: T1 sequence with A304E, W400A

For the next experiment, the target named is T3, human C2 S428A (human, UniProt P06681 21-752).
T3 sequence: T1 sequence with A304E, S408A

Another experiment deals with T4, human C2 D441A (human, UniProt P06681 21-752).
T4 sequence: T1 sequence with A304E, D421A

B1: RF16-214 (antibody, V domains shown)
VH: EVQLLESGGGLVQPGGSLRLSCAASGFTFSWYQMMWVRQAPGKGLEWVSRIYPSGGGTAYADSVKGRFTISRDNSKNTLYLQMNSLRAEDTAVYYCARDAGYGDNWGQGTLVTVSS
VL: QSALTQPPSVSVSPGQTASITCSGDKLGEKYASWYQQKAGQSPVMVIYQDRKRPSGIPERFSGSNSGNTATLTISGTQAMDEADYYCQAWDTRAVVFGGGTKLTVLG
B1: the Fold diff with human C2 E324A is 1 fold; with human C2 W420A, 1 fold; in the experiment with human C2 S428A, 2 fold; with human C2 D441A, 2 fold.
